# Measurements as given in patent publication US20190248902A1 (published 2019).
# Positions count from the first letter of the chain named.
# B1: 7E11 (antibody, V domains shown)
# VH: QVQLVESGGGVVQPGRSLRLSCAASGFTFSSFGMHWVRQAPGKGLEWVAIIWHDGSNKYYADSVKGRFTISRDNSNNTLYLQMSSLRAEDTAVYYCARDLSMGGMDVWGQGTTVTVSS
# VL: DIQMTQSPSSLSASVGDRVTIACRASQNIISYLNWYQQKPGKAPKFLIYTASSLQSGVPSRFSGSGSGTDFTLTISSLQPEDFAIYYCQQTYSTPLTFGGGTKVEIK
# notes: mAb
# B2: 6G7 (antibody, V domains shown)
# VH: QVQLVESGGGVVQPGRSLRLSCAASGFTFSSYGMHWVRQTPGKGLEWVAIISYVGKNKYYADSVKGRFTISRDNSKNTLYLQMNSLRAEDTAVYYCARRGNSYGGYGMDVWGQGTTVTVSS
# VL: DIQMTQSPSSRSASVGDRVTITCQASQDISNYLNWCQQKPGKALKLLIYDASTLETGVPSRFSGSGSGTDFTFTISSVQPEDIATYYCQQYDNVPITFGQGTRLEIK
# notes: mAb
# B3: 194A4 (antibody, V domains shown)
# VH: QVQLVQSGTEVKKPGASLKVSCKASGYTFTVYYLNWVRQAPGQGLEWMGWINPNSGGTNYAQKFQGRVTMTRDTSISTAYMELSRLRSDDTAVYYCARGYDILTGWGQGTLVTVSS
# VL: EIVLTQSPGTLSLSPGERATLSCRASRGVSNIYLAWYQQKPGQAPRLLIYGASNRATGIPDRFSGSGSGTDFTLTISRLEPEDFAVYYCQHNDYSMFTFGPGTKVDIK
# notes: mAb
# B4: 5E5 (antibody, V domains shown)
# VH: QVQLVESGGGVVQPGRSLRLSCAASGFTFSNYVMHWVRQAPGKGLEWVAVIWYDGSNKYYADSVKGRFTISRDNSKNTLYLQMNSLRAEDTAVYYCTREVYSSGWYDYGMDVWGQGTTVTVSS
# VL: DIQMTQSPSSLSASVGDRVTITCRASQGIRNDLGWYQQKPGKAPKRLIYAASSLQSGVPSRFSGSGSGTEFTLTISSLQPEDFATYYCLQHYSYPRTFGQGTKVEVK
# notes: mAb
# B5: 7G4 (antibody, V domains shown)
# VH: B4 VH with S30N, N84T, T97A, V100K, G104N
# VL: B4 VL with K39R, F83S, Q90H, H91Q, V106I
# notes: mAb
# B6: 48B12 (antibody, V domains shown)
# VH: EVQLLESGGGLVQPGGSLRLSCAASGFTFSSYAMNWVRQAPGKGLEWVSAISGRGGNTFYADSVKGRFTISRDNSKNTLYLQMNSLRAEDTAVYYCAKRETYNWNYEGFDYWGQGTLVTVSS
# VL: SYELTQPPSVSVSPGQTARITCSGDALPKKYAYWYQQKSGQAPVLVIYEDSKRPSGIPERFSGSSSGTMATLTISGAQVEDEADYYCNSTDSSGNHVVFGGGTKLTVL
# notes: mAb
# B7: 184E7 (antibody, V domains shown)
# VH: QVQLVQSGAEVKTPGASVKVSCRASGYTFTSYNMHWVRQVPGQGLEWMGWINPNNGGSNYTQKFQGRVTMTRDTSISTAYMELSRLRSDDTAVYYCARKFGDWGQGTLVTVSS
# VL: DIQMTQSPSSRSASIGERVTITCRASQGISNYLAWIQQKPGTAPKSLIYAASSLQSGVSSRFSGSGFGTDFTITISSVQREDFATYYCQQYNGYPFTFGHGTKVDIK
# notes: mAb
# B8: 22G5 (antibody, V domains shown)
# VH: EVQLLESGGGLVQPGGSLRLSCAASGFTFSSYAMNWVRQAPGMGLEWVSVISRSGGYTYYADSVKGRFTISRDNSKNTLYLQMNSLRAEDTAVYYCASRLAVAGSEAFDIWGQGTLVTVSS
# VL: DIQMTQSPSSLSASVGDRVTITCRASQNISSYLNWYQQKQGKAPKLLIYAASSLQNGVPSRFSGRGSGTDFTLTISSLQPEDFATYYCQQSYRTPLFTFGPGTKVDFK
# notes: mAb
# B9: 56E5 (antibody, V domains shown)
# VH: QVQLVQSGAEVKKPGASVKVSCQASGYTFTGYHMHWVRQAPGQGLEWMGWINPNNNATNYAQKFQGRVTMTRDTSISTAYMELRRLRSDDTAVYHCARDGTSSFDYWGQGTLVTVSS
# VL: DIQMTQSPSSVSASVGDRVTITCRASQGIRKWLAWYQQKPGKAPKLLIYAASSLQSGVPSRFSGSGSGTDFTLTISSLQPEDFATYYCQQANSFPFTFGPGTKVDIK
# notes: mAb
# B10: 72G9 (antibody, V domains shown)
# VH: EVQLVESGGGLVKPGGSLRLSCAASGFTFSSYSMNWVRQAPGKGLEWVSSISGSSSYIYYADSVKGRFTISRDNAKNSLYLQMNSLRAEDTAVYFCARGGSRGFDPWGQGTLVTVSS
# VL: B9 VL with V11L, G28S, R30T, K31S, W32Y, A34N, A50T, A91S, N92H
# notes: mAb
# B11: 4A2 (antibody, V domains shown)
# VH: QVQLVQSGTEVKKPGASVKVSCKASGYTFTNYDINWVRQATGQGLEWMGWMHPNSGNTGYAQKFQGRVTLTRNTSISTAYMELSSLRSEDTAVYYCASSSGWYYFDYWGQGTLVTVSS
# VL: DIVMTQSPDSLAVSLGERATINCKSSQSILHSSNNNNYLAWFQQKPGQPPKLLLYWASTRESGVPDRFSGSGSGTDFTLTISSLQPEDVAVYYCQQYYNTPVTFGPGTKVGIK
# notes: mAb
# B12: 25A4 (antibody, V domains shown)
# VH: B11 VH with Q3L, T9A, K13R, H52Y, L70M
# VL: DIVMTQFPDSLAVSLGERATIKCKSSQSVLYSSHNNNYLAWYQQKPGQPPKLLLYWASTRESGVPDRFSGSGSGTEFTLTISSLEAEDVAVYYCQQYYSTPPTFGQGTKVEIK
# notes: mAb
# B13: 26C4 (antibody, V domains shown)
# VH: B11 VH with T9A, T41S, H52N, K63R, L70M, S77N
# VL: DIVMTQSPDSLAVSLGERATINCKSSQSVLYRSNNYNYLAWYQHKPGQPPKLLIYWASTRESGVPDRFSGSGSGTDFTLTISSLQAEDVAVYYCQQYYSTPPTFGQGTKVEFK
# notes: mAb
# B14: 29H8 (antibody, V domains shown)
# VH: B11 VH with T9A, K12Q, H52N, K63R, L70M, T78A
# VL: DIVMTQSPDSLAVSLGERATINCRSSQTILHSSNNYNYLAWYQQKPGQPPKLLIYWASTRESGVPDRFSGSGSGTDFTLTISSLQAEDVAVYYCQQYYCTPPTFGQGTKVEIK
# notes: mAb
# Tests used:
# [1] = target: T1, human ASGR-1 mutant construct H203 (human, UniProt P07306 1-291); assay: FACS ratio: 65C12 geomean / this mAb geomean
# T1 construct: Arg/Glu scanning: non-arginine residues were changed to arginine; Transiently expressed on CHO-S cells
# T1 sequence: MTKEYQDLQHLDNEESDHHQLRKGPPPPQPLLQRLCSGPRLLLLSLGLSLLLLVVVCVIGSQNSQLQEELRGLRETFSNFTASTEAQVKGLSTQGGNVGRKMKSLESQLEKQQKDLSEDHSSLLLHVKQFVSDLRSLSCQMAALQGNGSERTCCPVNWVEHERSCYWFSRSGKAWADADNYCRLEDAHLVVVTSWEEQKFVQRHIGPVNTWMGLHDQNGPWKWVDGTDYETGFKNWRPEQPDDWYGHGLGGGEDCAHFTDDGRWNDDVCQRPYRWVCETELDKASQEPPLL
# In short: (§1)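 CHO-S cells transiently expressing wild-type or point-mutant hASGR-1 were stained with antibody at 5 ug/ml for 1 h at 4 °C. Bound antibody was detected by Fc-specific Alexa 647 secondary plus 7-AAD and read by flow cytometry. Ratio is 65C12 geomean divided by test mAb geomean, normalizing for expression.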
# human ASGR-1 (wild type) = target: T2, human ASGR-1 (wild type) (human, UniProt P07306 1-291); assay: FACS ratio: 65C12 geomean / this mAb geomean
# T2 construct: also called wt ASGR1; huASGR-1
# T2 sequence: T1 sequence with R203H
# In short: as §1
# [2] = target: T1, human ASGR-1 mutant construct H203; assay: FACS ratio: H203 normalized value / wt normalized value
# In short: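 Transiently transfected CHO-S cells expressing wild-type or mutant hASGR-1 incubated with antibody at 5 ug/ml, 1 h at 4 °C; bound antibody detected by Alexa Fluor 647 anti-Fc plus 7-AAD, by flow cytometry. Binding normalized to expression using an unaffected antibody (65C12), then to wild type; hits defined as >3× IQR above third quartile.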
binder,measurement,setting,value
B1,Expression Normalization to mAb 65C12,[1],1.75
same,Expression Normalization to mAb 65C12,human ASGR-1 (wild type),1.23
same,Normalization to wt ASGR1 Binding,[2],1.42
B2,Expression Normalization to mAb 65C12,[1],1.71
same,Expression Normalization to mAb 65C12,human ASGR-1 (wild type),1.45
same,Normalization to wt ASGR1 Binding,[2],1.18
B3,Expression Normalization to mAb 65C12,[1],2.12
same,Expression Normalization to mAb 65C12,human ASGR-1 (wild type),3.44
same,Normalization to wt ASGR1 Binding,[2],0.616
B4,Expression Normalization to mAb 65C12,[1],2.04
same,Expression Normalization to mAb 65C12,human ASGR-1 (wild type),1.38
same,Normalization to wt ASGR1 Binding,[2],1.48
B5,Expression Normalization to mAb 65C12,[1],1.39
same,Expression Normalization to mAb 65C12,human ASGR-1 (wild type),1.16
same,Normalization to wt ASGR1 Binding,[2],1.2
B6,Expression Normalization to mAb 65C12,[1],1.26
same,Expression Normalization to mAb 65C12,human ASGR-1 (wild type),1.07
same,Normalization to wt ASGR1 Binding,[2],1.18
B7,Expression Normalization to mAb 65C12,[1],1.4
same,Expression Normalization to mAb 65C12,human ASGR-1 (wild type),1.31
same,Normalization to wt ASGR1 Binding,[2],1.07
B8,Expression Normalization to mAb 65C12,[1],1.71
same,Expression Normalization to mAb 65C12,human ASGR-1 (wild type),1.24
same,Normalization to wt ASGR1 Binding,[2],1.37
B9,Expression Normalization to mAb 65C12,[1],1.27
same,Expression Normalization to mAb 65C12,human ASGR-1 (wild type),1.32
same,Normalization to wt ASGR1 Binding,[2],0.962
B10,Expression Normalization to mAb 65C12,[1],1.37
same,Expression Normalization to mAb 65C12,human ASGR-1 (wild type),1.54
same,Normalization to wt ASGR1 Binding,[2],0.893
B11,Expression Normalization to mAb 65C12,[1],1.36
same,Expression Normalization to mAb 65C12,human ASGR-1 (wild type),1.36
same,Normalization to wt ASGR1 Binding,[2],0.997
B12,Expression Normalization to mAb 65C12,[1],1.29
same,Expression Normalization to mAb 65C12,human ASGR-1 (wild type),1.01
same,Normalization to wt ASGR1 Binding,[2],1.27
B13,Expression Normalization to mAb 65C12,[1],1.91
same,Expression Normalization to mAb 65C12,human ASGR-1 (wild type),1.22
same,Normalization to wt ASGR1 Binding,[2],1.57
B14,Expression Normalization to mAb 65C12,[1],1.95
same,Expression Normalization to mAb 65C12,human ASGR-1 (wild type),1.37
same,Normalization to wt ASGR1 Binding,[2],1.42
